In US20230416410A1 (ZOETIS SERVICES, published 2023) one finds binding result and Kd data, which are given here for two molecules.

Where a chain is given by its changes, count along the chain named.

Assay in all cases: SPR Biacore, biotinylated receptor on SA sensor, pH 7.4, 15 C
For orientation: In SPR one partner is held on a chip, and binding of the other changes the refractive index at the surface.

The target in one assay is T1, CTLA4 Fc bIgG1aSAS (canine; bovine, UniProt Q9XSI1 36-161, limits assumed).
T1 construct: No linker
T1 sequence: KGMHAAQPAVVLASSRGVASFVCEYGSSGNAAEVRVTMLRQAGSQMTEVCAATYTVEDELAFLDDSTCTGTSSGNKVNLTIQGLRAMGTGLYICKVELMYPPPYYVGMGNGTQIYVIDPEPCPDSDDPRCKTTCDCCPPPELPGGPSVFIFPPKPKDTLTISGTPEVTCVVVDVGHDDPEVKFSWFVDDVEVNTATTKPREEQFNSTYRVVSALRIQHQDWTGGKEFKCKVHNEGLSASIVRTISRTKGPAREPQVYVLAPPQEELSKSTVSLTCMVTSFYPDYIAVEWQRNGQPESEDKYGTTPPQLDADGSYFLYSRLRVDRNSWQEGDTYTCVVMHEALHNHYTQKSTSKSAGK
The method, then:
(§1) A Biacore SPR binding assay was designed to test the affinity of bovine IgG subclasses to bFcgR1, bFcgR2 and bFcgR3. All reported KD's were measured by Biacore (Cytiva, Marlborough, MA, USA) using series S SA sensor. Biotinylated-bovine FcgR1, R2 and R3 were captured on the sensor surface using a modified SA capture method to reach the desired surface density. 10 mM HEPES, 150 mM NaCl, 3 mM EDTA, 0.05% v/v surfactant P20, pH7.4 buffer was used as the running and titration buffer. Various concentrations of bovine CTLA4-Fc fusions or mAbs were titrated and flowed over the receptor surface and affinities were determined using Biacore T200 Evaluation software (Cytiva, Marlborough, MA, USA) with 1:1 binding model. The method of double referencing has been applied where the reference flow cell was subtracted from the flow cell containing immobilized receptors and blank runs containing buffer only were subtracted out from all runs. Flow cells were regenerated using 10 mM Glycine pH1.5. Runs were performed at 15° C.
(§2) The ability to knock out binding to bovine Fc gamma receptors was evaluated by comparing SPR Biacore bFcgR affinity of bIgG1a and bIgG1b wildtype Fc to the bIgG1a and bIgG1b mutations, described above. All mutations made to bIgG1 are identical for the a and b allotypes. Biacore methods for bFcgR1, R2, and R3 were performed as described in Example 1.

In the next assay the target is T2, CTLA4 Fc bIgG1aWin (canine; bovine, UniProt Q9XSI1 36-161, limits assumed).
T2 construct: No linker
T2 sequence: T1 sequence with L142A, P143A, G145A, S237P, S239P
On the procedure: as §1, §2

Another assay addresses T3, CTLA4 Fc bIgG1aSAP (canine; bovine, UniProt Q9XSI1 36-161, limits assumed).
T3 construct: No linker
T3 sequence: T1 sequence with S239P
On the procedure: as §1, §2

The target in the next assay is T4, CTLA4 Fc bIgG1a (canine; bovine, UniProt Q9XSI1 36-161, limits assumed).
T4 construct: No linker; also called bIgG1a wildtype; CTLA4 Fc bIgG1a wildtype
T4 sequence: T1 sequence with S237P, S239P
The method, then:
as §1, §2

The target in a further assay is T5, CTLA4 Fc bIgG1aWinSAS (canine; bovine, UniProt Q9XSI1 36-161, limits assumed).
T5 construct: No linker
T5 sequence: T1 sequence with L142A, P143A, G145A
The method, then: as §1, §2

B1: recombinant bovine FcgR2 (receptor)
chain: KPDLPKAVVTIQPAWINVLREDHVTLTCQGTSFSAGNLTTWFHNGSSIHTQKQPSYSFRAGSNDSGSYRCQREQTSLSDPVHLDVISDWLLLQTPSLVFQEGEPIMLRCHSWRNQPLNKITFYQDRKSKIFSYQRTNFSIPRANLSHSGQYHCTAFIGKMLHSSQPVNITVQESSSSGPSSMTHHHHHHAGLNDIFEAQKIEWHE
modifications: biotin on the BAP tag (BirA)
notes: also called bFcgR2; bFcgRII
Turning to B1, the binding result with CTLA4 Fc bIgG1aSAS, with CTLA4 Fc bIgG1aSAP and with CTLA4 Fc bIgG1aWinSAS was “no binding” in each case. For the same molecule, the values for the dissociation constant Kd in the assay with CTLA4 Fc bIgG1aWin and in the assay with CTLA4 Fc bIgG1a were 2.79 nM and 3.37 nM, respectively.

B2: recombinant bovine FcgR3 (receptor)
chain: DTQTADPSKAVVLLDPQWNHVLTNDRVTLKCQGDYPVEDNSTKWWHNGTLISSQTPSYFIADVKVQDSGEYKCQTGLSAPSDPVKLEVHVGWLLLQVAQRVVNVGKPIRLKCHSWKKTPVAKVQYFRNGRGKKYSHGNSDFHIPEAKLEHSGSYFCRGIIGSKNESSESVQITVQAPETLQTVSSFFLPWHQHHHHHHAGLNDIFEAQKIEWHE
modifications: biotin on the BAP tag (BirA)
notes: also called bFcgR3; bFcgRIII
Take B2: the binding result with CTLA4 Fc bIgG1aSAS, with CTLA4 Fc bIgG1aWin, in the assay with CTLA4 Fc bIgG1aSAP and with CTLA4 Fc bIgG1aWinSAS was “no binding” each time. Besides, the affinity with CTLA4 Fc bIgG1a, expressed as Kd, was 14.3 nM.
